In publication PMC9954413 (Cancers, 2023):

B1: UbcH13 (UBE2N) (enzyme, human)
chain: MAGLPRRIIKETQRLLAEPVPGIKAEPDESNARYFHVVIAGPQDSPFEGGTFKLELFLPEEYPMAAPKVRFMTKIYHPNVDKLGRICLDILKDKWSPALQIRTVLLSIQALLSAPNPDDPLANDVAEQWKTNEAQAIETARAWTRLYAMNNI
notes: human UbcH13 (UBE2N), E2 ubiquitin-conjugating enzyme; also called UbcH13 E2 enzyme
B2: Arkadia (RNF111) LONG, residues 876-994 (Ark LONG, 119 aa) (domain or fragment, human, UniProt Q6ZNA4 876-994, looked up)
chain: FRGNFEELIHLEERLGNVNRGASQGTIERCTYPHKYKKVTTDWFSQRKLHCKQDGEEGTEEDTEEKCTICLSILEEGEDVRRLPCMHLFHQVCVDQWLITNKKCPICRVDIEAQLPSES
notes: human Arkadia (RNF111), residues 876-994, 119 aa; RING domain with the non-RING elements; also called wt Ark LONG; source: expressed and purified as described elsewhere [31]
B3: Arkadia (RNF111) RING, residues 927-994 (Ark RING, 68 aa) (domain or fragment, human, UniProt Q6ZNA4 927-994, looked up)
chain: KQDGEEGTEEDTEEKCTICLSILEEGEDVRRLPCMHLFHQVCVDQWLITNKKCPICRVDIEAQLPSES
notes: human Arkadia (RNF111), residues 927-994, 68 aa; also called wt Ark RING; source: expressed and purified as described elsewhere [31]

Experiments:
Experiment in all cases: ITC; 1-3 mM E2 in the syringe injected (2 uL, 15-19 injections) into 100-300 uM Arkadia polypeptide in the cell; 25 °C; 50 mM KH2PO4, 50 mM K2HPO4 pH 7; single-site model
Details in all cases: both partners purified
[1] = target: B3
[2] = target: B2
UbcH7 (UBE2L3) = target: T1, UbcH7 (UBE2L3) (human, UniProt P68036 1-154)
T1 construct: human UbcH7 (UBE2L3), E2 ubiquitin-conjugating enzyme; also called wt UbcH7; source: expressed and purified as described elsewhere [21,32]

UbcH13 (UBE2N) = target: B1
UbcH5B (UBE2D2) = target: T2, UbcH5B (UBE2D2) (human, UniProt P62837 1-147)
T2 construct: His6-tag cleaved with thrombin; also called wt UbcH5B; wt E2

UbcH7 K96S = target: T3, UbcH7 K96S (human, UniProt P68036 1-154, K96S)
T3 construct: human UbcH7 (UBE2L3) with K96S (KPA motif changed to SPA); also called mutant UbcH7; source: site-directed mutagenesis; expressed and purified as the wild type

Row | Binder | Kd (UbcH7 (UBE2L3)) [µM] | Kd (UbcH13 (UBE2N)) [µM] | Kd (UbcH5B (UBE2D2)) [µM] | also measured
1 | B1 | – | – | – | dH [1]: 3.4 kcal/mol; stoichiometry N [1]: 1.1; dH [2]: -2.3 kcal/mol; stoichiometry N [2]: 0.9
2 | B2 | 4.3 ± 0.5 | 51.9 ± 5 | 2.7 ± 0.5 | –
3 | Arkadia LONG R983K (domain or fragment, human Arkadia (RNF111), residues 876-994, with R983K; also called Ark LONG R983K; source: site-directed mutagenesis; expressed and purified as the wild type) FRGNFEELIHLEERLGNVNRGASQGTIERCTYPHKYKKVTTDWFSQRKLHCKQDGEEGTEEDTEEKCTICLSILEEGEDVRRLPCMHLFHQVCVDQWLITNKKCPICKVDIEAQLPSES | – | – | 5.5 ± 0.6 | –
4 | B3 | 27.3 ± 2 | 264 ± 46 | – | Kd (UbcH7 K96S): 10.2 ± 0.6 µM
5 | Arkadia LONG R983A (domain or fragment, human Arkadia (RNF111), residues 876-994, with R983A; also called Ark LONG R983A; source: site-directed mutagenesis; expressed and purified as the wild type) FRGNFEELIHLEERLGNVNRGASQGTIERCTYPHKYKKVTTDWFSQRKLHCKQDGEEGTEEDTEEKCTICLSILEEGEDVRRLPCMHLFHQVCVDQWLITNKKCPICAVDIEAQLPSES | – | – | 8.4 ± 0.4 | –
